Results reported in paper doi:10.1101/2020.05.02.074187 (bioRxiv, 2020).
Where two headings read alike, the source gives them in different places.

Experiments:
Test in all cases: single-molecule AFM dynamic force spectroscopy
[1] = target: T1, E-cadherin endogenously expressed on the apical surface of MDCK cells (canine (endogenous in MDCK), UniProt F1PAA9 157-885)
T1 sequence (looked up): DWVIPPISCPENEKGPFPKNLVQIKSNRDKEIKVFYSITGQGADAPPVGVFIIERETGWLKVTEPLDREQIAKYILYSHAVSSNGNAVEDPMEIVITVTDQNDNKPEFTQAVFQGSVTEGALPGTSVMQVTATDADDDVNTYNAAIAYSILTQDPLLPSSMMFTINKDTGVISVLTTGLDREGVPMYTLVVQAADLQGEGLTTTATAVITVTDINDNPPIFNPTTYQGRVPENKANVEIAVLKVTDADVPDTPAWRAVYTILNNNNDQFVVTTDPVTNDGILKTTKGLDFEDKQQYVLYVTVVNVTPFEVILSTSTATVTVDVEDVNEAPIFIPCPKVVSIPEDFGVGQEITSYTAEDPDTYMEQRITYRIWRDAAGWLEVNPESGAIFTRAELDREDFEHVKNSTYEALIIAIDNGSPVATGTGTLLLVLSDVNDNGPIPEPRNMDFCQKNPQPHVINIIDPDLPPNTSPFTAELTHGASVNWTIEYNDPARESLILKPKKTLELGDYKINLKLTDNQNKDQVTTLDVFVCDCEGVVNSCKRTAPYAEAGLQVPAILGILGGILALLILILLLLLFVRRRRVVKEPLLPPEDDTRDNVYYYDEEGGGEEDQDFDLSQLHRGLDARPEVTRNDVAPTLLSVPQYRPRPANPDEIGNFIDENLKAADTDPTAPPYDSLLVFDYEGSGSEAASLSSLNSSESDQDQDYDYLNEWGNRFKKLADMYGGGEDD

[2] = target: T1, E-cadherin endogenously expressed on …; remark: listed apart in the source
[3] = target: T1, E-cadherin endogenously expressed on …; remark: listed apart in the source

B1: recombinant E-cadherin extracellular region, biotinylated monomer with C-terminal Avi tag (domain or fragment, UniProt F1PAA9 157-712, looked up)
chain: DWVIPPISCPENEKGPFPKNLVQIKSNRDKEIKVFYSITGQGADAPPVGVFIIERETGWLKVTEPLDREQIAKYILYSHAVSSNGNAVEDPMEIVITVTDQNDNKPEFTQAVFQGSVTEGALPGTSVMQVTATDADDDVNTYNAAIAYSILTQDPLLPSSMMFTINKDTGVISVLTTGLDREGVPMYTLVVQAADLQGEGLTTTATAVITVTDINDNPPIFNPTTYQGRVPENKANVEIAVLKVTDADVPDTPAWRAVYTILNNNNDQFVVTTDPVTNDGILKTTKGLDFEDKQQYVLYVTVVNVTPFEVILSTSTATVTVDVEDVNEAPIFIPCPKVVSIPEDFGVGQEITSYTAEDPDTYMEQRITYRIWRDAAGWLEVNPESGAIFTRAELDREDFEHVKNSTYEALIIAIDNGSPVATGTGTLLLVLSDVNDNGPIPEPRNMDFCQKNPQPHVINIIDPDLPPNTSPFTAELTHGASVNWTIEYNDPARESLILKPKKTLELGDYKINLKLTDNQNKDQVTTLDVFVCDCEGVVNSCKRTAPYAEAGLQVPA
modifications: biotin (biotinylated with BirA enzyme)
B1 was tested, and the koff [1] was 1.73 s⁻¹, the koff [2] was 1.77 s⁻¹ and the koff [3] was 2.37 s⁻¹.
